B1: Mu16F6 Fab (antibody, V domains shown)
VH: DVQLQESGPGLVKPSQSLSLTCTVTGNSITSEYAWNWIRQFPGNKLEWMGYISYSGTTSYNPSLKSRISITRDTSKNQLFLQLNSVTTEDTATYFCARYGYGNPATRYFDVWGAGTTVTVSS
VL: DVQITQSPSYLTASPGETITINCRASKSISKYLAWYQEKPGKTNKLLIYSGSTLQSGIPSRFSGSGSGTDFTLTISNLEPEDFAMYYCQQHNEYPWTFGGGTKLEIK
B2: Mu15G11 Fab (antibody, V domains shown)
VH: QVQLQQPGAELVKPGASVKLSCKASGYTFTSYWMHWVKQRPGQGLEWIGEINPTNGRTNYIEKFKSKATLTVDKSSSTAYMQLSSLTSEDSAVYYCARGTRAYHYWGQGTSVTVSS
VL: DIQMTQSPASLSVSVGETVTITCRASDNLYSNLAWYQQKQGKSPQLLVYDATNLADGVPSRFSGSGSGTQYSLKINSLQSEDFGTYYCQHFWGTPLTFGAGTKLELK
B3: Mu7A4 Fab (antibody, V domains shown)
VH: QVQLQQSGPELVRPGVSVKISCKGSGYTFTDYAMHWVKQSHAKSLEWIGGISTYFGRTNYNQKFKGRATMTVDKSSSTAYMELARLTSEDSALYYCARGLSGNYVMDYWGQGTSVTVSS
VL: DIVLTQSPASLAVSLGQRATISCRASESVDSYGNSFMHWYQQKPGQPPKLLIYRASNLESGIPARFSGSGSRTDFTLTINPVEADDVATYYCQQSNEGPPTFGGGTKLEIK
B4: Hu16F6.v4 Fab (antibody, V domains shown)
VH: EVQLVESGPGLVKPSETLSLTCTVSGNSITSEYAWNWIRQPPGKGLEWIGYISYSGTTSYNPSLKSRVTISRDTSKNQLSLKLSSVTAADTAVYYCARYGYGNPATRYFDVWGQGTLVTVSS
VL: DIQMTQSPSSLSASVGDRVTITCRASKSISKYLAWYQQKPGKTNKLLLYSGSTLQSGVPSRFSGSGSGTDYTLTISSLQPEDFATYYCQQHNEYPWTFGQGTKVEIK
B5: Hu7G7.v1 Fab (antibody, V domains shown)
VH: EVQLVQSGAEVKKPGASVKVSCKASGYTFTSYWMHWVRQAPGQGLEWIGNIYPGSGSTKYDERFKSRVTITVDTSTSTAYLELSSLRSEDTAVYYCTRGGYDSRAWFAYWGQGTLVTVSS
VL: DIVMTQSPDSLAVSLGERATINCRARQSVSTSSYSFMHWYQQPAGQPPKLLIKYASIQESGVPDRFSGSGSGTDFTLTISSLQAEDVAVYYCQHTWEIPFTFGQGTKVEIK
B6: Hu7A4.v15 Fab (antibody, V domains shown)
VH: EVQLVQSGAEVKKPGASVKVSCKGSGYTFTDYAMHWVRQAPGQGLEWMGGISTYFGRTNYNQKFKGRVTMTVDTSISTAYMELSRLRSDDTAVYYCARGLSGNYVMDYWGQGTTVTVSS
VL: DIVMTQSPDSLAVSLGERATINCRASESVDSYGNSFMHWYQQKPGQPPKLLIYRASNLESGVPDRFSGSGSRTDFTLTISSLQAEDVAVYYCQQSNEAPPTFGQGTKLEIK
B7: Hu15G11.HC34A Fab (antibody, V domains shown)
VH: EVQLVQSGAEVKKPGASVKVSCKASGYTFTSYWAHWVRQAPGQRLEWIGEINPTNGRTNYIEKFKSRATLTVDKSASTAYMELSSLRSEDTAVYYCARGTRAYHYWGQGTMVTVSS
VL: DIQMTQSPSSLSASVGDRVTITCRASDNLYSNLAWYQQKPGKSPKLLVYDATNLADGVPSRFSGSGSGTDYTLTISSLQPEDFATYYCQHFWGTPLTFGQGTKVEIK
B8: Hu15G11.HC51A Fab (antibody, V domains shown)
VH: B7 VH with A34M, I51A
VL: B7 VL
B9: Hu15G11.HC53A Fab (antibody, V domains shown)
VH: B7 VH with A34M, T54A
VL: B7 VL
B10: Hu15G11.HC32A Fab (antibody, V domains shown)
VH: B7 VH with Y32A, A34M
VL: B7 VL
B11: hu15G11.v5 HC G49A (antibody, V domains shown)
VH: B7 VH with A34M, G49A
VL: B7 VL
B12: hu15G11.v5 HC T28A (antibody, V domains shown)
VH: B7 VH with T28A, A34M
VL: B7 VL
B13: hu15G11.v5 LC N28A (antibody, V domains shown)
VH: B7 VH with A34M
VL: B7 VL with N28A
B14: hu15G11.v5 LC D27A (antibody, V domains shown)
VH: B7 VH with A34M
VL: B7 VL with D27A
B15: hu15G11.v5 HC E50A (antibody, V domains shown)
VH: B7 VH with A34M, E50A
VL: B7 VL
B16: hu15G11.v5 LC S26A (antibody, V domains shown)
VH: B7 VH with A34M
VL: B7 VL with S26A
B17: hu15G11.v5 HC G26A (antibody, V domains shown)
VH: B7 VH with G26A, A34M
VL: B7 VL
B18: hu15G11.v5 IgG (antibody, V domains shown)
VH: B7 VH with A34M
VL: B7 VL
B19: hu15G11.v5 LC R24A (antibody, V domains shown)
VH: B7 VH with A34M
VL: B7 VL with R24A
B20: hu15G11.v5 LC L54A (antibody, V domains shown)
VH: B7 VH with A34M
VL: B7 VL with L54A
B21: hu15G11.v5 HC I51A (antibody, V domains shown)
VH: B7 VH with A34M, I51A
VL: B7 VL

The term Kd denotes the equilibrium constant for the complex coming apart. High values mean weaker binding, low ones tighter binding. Broadly, the EC50 is the midpoint of the concentration-response curve. A low value points to a more potent agent.

Residue numbers refer to the chain shown, from its start. Names may count otherwise. “And” between values parts separate entries of the source, which are not always exact repeats. Identical values can stand only once.

The target of one experiment is human TfR ECD (human). Description: SPR. On the technique in general: In SPR one partner is held on a chip, and binding of the other changes the refractive index at the surface.
Sequence of human TfR ECD (human) (chain, as listed by the source): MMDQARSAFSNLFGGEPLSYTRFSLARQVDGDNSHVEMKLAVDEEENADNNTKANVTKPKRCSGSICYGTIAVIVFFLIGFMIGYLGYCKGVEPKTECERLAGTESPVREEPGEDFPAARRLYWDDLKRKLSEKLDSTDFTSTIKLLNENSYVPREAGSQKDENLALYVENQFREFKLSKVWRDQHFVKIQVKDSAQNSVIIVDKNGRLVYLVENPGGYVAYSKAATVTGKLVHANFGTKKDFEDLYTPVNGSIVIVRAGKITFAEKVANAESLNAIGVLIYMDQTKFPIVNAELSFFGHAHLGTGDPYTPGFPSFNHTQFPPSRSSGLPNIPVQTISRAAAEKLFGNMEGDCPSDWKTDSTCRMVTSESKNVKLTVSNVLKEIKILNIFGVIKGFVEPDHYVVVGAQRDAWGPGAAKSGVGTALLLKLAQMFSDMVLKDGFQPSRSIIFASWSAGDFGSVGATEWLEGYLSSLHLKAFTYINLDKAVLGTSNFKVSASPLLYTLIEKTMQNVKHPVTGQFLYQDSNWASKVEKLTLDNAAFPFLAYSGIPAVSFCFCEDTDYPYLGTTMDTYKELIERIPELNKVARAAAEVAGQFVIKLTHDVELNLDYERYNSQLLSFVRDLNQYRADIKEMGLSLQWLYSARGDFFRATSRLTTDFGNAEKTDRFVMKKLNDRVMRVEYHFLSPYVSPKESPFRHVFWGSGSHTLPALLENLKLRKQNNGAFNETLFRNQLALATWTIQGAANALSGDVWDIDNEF
B1 registered a Kd of 3.13 nM.
Consider B2, for which the dissociation constant (Kd) came out at 3.37 nM.
With B3, the dissociation constant Kd was 0.19 nM.
For the molecule B4, the Kd turned out to be 1.29 nM.
In turn, B5 returned a Kd of 45.8 nM.
The same measure, in the same setting: the value for B6 was 0.348 nM.

Another experiment addresses T1, cyno TfR ECD (cynomolgus).
T1 chain: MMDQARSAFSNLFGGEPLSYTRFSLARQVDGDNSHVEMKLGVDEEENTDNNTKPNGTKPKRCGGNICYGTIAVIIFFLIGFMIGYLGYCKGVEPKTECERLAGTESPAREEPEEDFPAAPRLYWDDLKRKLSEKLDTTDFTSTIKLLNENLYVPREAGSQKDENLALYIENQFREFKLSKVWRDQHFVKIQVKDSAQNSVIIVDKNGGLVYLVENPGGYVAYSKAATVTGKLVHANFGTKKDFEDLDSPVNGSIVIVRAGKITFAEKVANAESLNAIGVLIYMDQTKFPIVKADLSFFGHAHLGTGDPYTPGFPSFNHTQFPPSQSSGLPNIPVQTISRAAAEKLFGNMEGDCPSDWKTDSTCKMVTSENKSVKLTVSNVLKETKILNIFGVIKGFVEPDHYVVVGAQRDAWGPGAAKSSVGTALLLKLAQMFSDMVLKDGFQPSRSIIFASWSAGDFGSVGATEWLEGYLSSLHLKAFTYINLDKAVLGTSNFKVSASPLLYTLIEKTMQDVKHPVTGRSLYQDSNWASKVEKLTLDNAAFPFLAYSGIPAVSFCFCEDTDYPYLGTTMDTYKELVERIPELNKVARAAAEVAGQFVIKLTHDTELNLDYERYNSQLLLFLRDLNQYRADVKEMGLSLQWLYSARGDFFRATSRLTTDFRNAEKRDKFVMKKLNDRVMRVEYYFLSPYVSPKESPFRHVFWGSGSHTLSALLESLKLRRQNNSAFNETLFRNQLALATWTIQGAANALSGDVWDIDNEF
Description: SPR.
In the case of B1, the affinity, expressed as Kd, was 26.8 nM.
For B2, the Kd was 5.81 nM and 7.57 nM.
For B3, the Kd is 0.741 nM.
B4 displayed a Kd of 24.7 nM.
The molecule B5 gave a Kd of 188 nM.
Consider B6, for which binding was characterised by a dissociation constant (Kd) of 4.28 nM.

A further experiment addresses T1, cyno TfR ECD. The experiment is described as follows: SPR. This is another data set of the same source.
B7 had a Kd of 32.6 nM.
On the same count and under the same terms, the value for B8 was 105 nM.
Consider B9, for which the equilibrium dissociation constant (Kd) is 51.8 nM.

The target of a further experiment is human TfR ECD (human). The experiment is described as follows: SPR. The source holds these as a separate data set.
B7 returned a Kd of 7.14 nM.
With B10, the Kd amounted to 7.47 nM.
Same read-out and setting: the value for B8 was 23.9 nM.
Take B9: binding was put at a Kd of 12.9 nM.

The target in a further experiment is human TfR ECD (human). Description: ELISA. Background: ELISA stands for enzyme-linked immunosorbent assay.
In turn, B11 showed a concentration for a half-maximal effect (EC50) of 0.3 ng/mL.
Same read-out and setting: the figure for B12 is 0.4 ng/mL.
The same measure, in the same setting: the value for B13 was 0.2 ng/mL; that for B14 was 0.2 ng/mL.
On the same count and under the same terms, the value for B15 was 20.6 ng/mL.
For B16, the response was half-maximal at 0.2 ng/mL (EC50).
Still for that read-out and setting: the figure for B17 is 1.1 ng/mL; for B18 it is 0.8 ng/mL; for B19 it is 0.1 ng/mL.
In turn, B20 had an EC50 of 0.4 ng/mL.
Same read-out and setting: the figure for B21 is 0.2 ng/mL.

In another experiment the target is T1, cyno TfR ECD. The experiment is described as follows: ELISA.
As to B11, the half-maximal effective concentration (EC50) is 1.1 ng/mL.
With B12, the midpoint of the response, the EC50, lay at 0.8 ng/mL.
The molecule B13 yielded an EC50 of 0.8 ng/mL.
B14 yielded an EC50 of 0.8 ng/mL.
In turn, B15 returned an EC50 of 410 ng/mL.
For B16, the EC50 is 0.6 ng/mL.
The molecule B17 returned an EC50 of 6.1 ng/mL.
The same measure, in the same setting: the value for B18 was 1.8 ng/mL; that for B19 was 0.4 ng/mL; that for B20 was 0.5 ng/mL.
B21 displayed an EC50 of 0.6 ng/mL.

For the origin of these results see US11008403 (dated 2021).
